Experimental data as given in article PMC10983791.

Legend:
[1] = substrate: NCCc1c[nH]cn1; test: purified protein, by the assay type; details: other: HNMT; SAM 100 μM; MTase-Glo readout; pH 8.0
[2] = substrate: C[S+](CC[C@H](N)C(=O)[O-])C[C@H]1O[C@@H](n2cnc3c(N)ncnc32)[C@H](O)[C@@H]1O; test: KM determination by method of initial rates, HNMT; assay type: biochemical, human; details: other: HNMT; substrate 100 μM; MTase-Glo readout; pH 8.0
[3] = substrate: C[S+](CC[C@H](N)C(=O)[O-])C[C@H]1O[C@@H](n2cnc3c(N)ncnc32)[C@H](O)[C@@H]1O; test: KM determination by method of initial rates, GNMT; assay type: biochemical, human; details: other: GNMT; substrate 100 μM; MTase-Glo readout; pH 8.0
[4] = substrate: C[S+](CC[C@H](N)C(=O)[O-])C[C@H]1O[C@@H](n2cnc3c(N)ncnc32)[C@H](O)[C@@H]1O; test: KM determination by method of initial rates, PNMT; assay type: biochemical, human; details: other: PNMT; norepinephrine 100 μM; pH 8.0
[5] = substrate: NC[C@H](O)c1ccc(O)c(O)c1; test: KM determination by method of initial rates, PNMT; assay type: biochemical, human; details: other: PNMT; SAM 100 μM; fit to substrate inhibition model; pH 8.0
[6] = substrate: C[S+](CC[C@H](N)C(=O)[O-])C[C@H]1O[C@@H](n2cnc3c(N)ncnc32)[C@H](O)[C@@H]1O; test: KM determination by method of initial rates, COMT; assay type: biochemical, human; details: other: COMT; substrate 100 μM; MTase-Glo readout; pH 8.0
[7] = substrate: NC[C@H](O)c1ccc(O)c(O)c1; test: KM determination by method of initial rates, COMT; assay type: biochemical, human; details: other: COMT; SAM 100 μM; MTase-Glo readout; pH 8.0
[8] = substrate: NC(=O)c1cccnc1; test: purified protein, by the assay type; details: other: NNMT; SAM 100 μM; MTase-Glo readout; pH 8.0
[9] = substrate: C[S+](CC[C@H](N)C(=O)[O-])C[C@H]1O[C@@H](n2cnc3c(N)ncnc32)[C@H](O)[C@@H]1O; test: KM determination by method of initial rates, NNMT; assay type: biochemical, human; details: other: NNMT; substrate 100 μM; MTase-Glo readout; pH 8.0

B1: HNMT (Homo sapiens) (protein)
chain: MASSMRSLFSDHGKYVESFRRFLNHSTEHQCMQEFMDKKLPGIIGRIGDTKSEIKILSIGGGAGEIDLQILSKVQAQYPGVCINNEVVEPSAEQIAKYKELVAKTSNLENVKFAWHKETSSEYQSRMLEKKELQKWDFIHMIQMLYYVKDIPATLKFFHSLLGTNAKMLIIVVSGSSGWDKLWKKYGSRFPQDDLCQYITSDDLTQMLDNLGLKYECYDLLSTMDISDCFIDGNENGDLLWDFLTETCNFNATAPPDLRAELGKDLQEPEFSAKKEGKVLFNNTLSFIVIEA
Km [1]: 5.3 ± 2.1 µM
Km [2]: 9.3 ± 2.1 µM

B2: GNMT (Homo sapiens) (protein)
chain: MVDSVYRTRSLGVAAEGLPDQYADGEAARVWQLYIGDTRSRTAEYKAWLLGLLRQHGCQRVLDVACGTGVDSIMLVEEGFSVTSVDASDKMLKYALKERWNRRHEPAFDKWVIEEANWMTLDKDVPQSAEGGFDAVICLGNSFAHLPDCKGDQSEHRLALKNIASMVRAGGLLVIDHRNYDHILSTGCAPPGKNIYYKSDLTKDVTTSVLIVNNKAHMVTLDYTVQVPGAGQDGSPGLSKFRLSYYPHCLASFTELLQAAFGGKCQHSVLGDFKPYKPGQTYIPCYFIHVLKRTD
Km [3]: 12.1 ± 3.6 µM

B3: PNMT (Homo sapiens) (protein)
chain: MSGADRSPNAGAAPDSAPGQAAVASAYQRFEPRAYLRNNYAPPRGDLCNPNGVGPWKLRCLAQTFATGEVSGRTLIDIGSGPTVYQLLSACSHFEDITMTDFLEVNRQELGRWLQEEPGAFNWSMYSQHACLIEGKGECWQDKERQLRARVKRVLPIDVHQPQPLGAGSPAPLPADALVSAFCLEAVSPDLASFQRALDHITTLLRPGGHLLLIGALEESWYLAGEARLTVVPVSEEEVREALVRSGYKVRDLRTYIMPAHLQTGVDDVKGVFFAWAQKVGL
Km [4]: 3.6 ± 0.6 µM
Km [5]: 16.2 ± 4.3 µM

B4: COMT (Homo sapiens) (protein)
chain: MPEAPPLLLAAVLLGLVLLVVLLLLLRHWGWGLCLIGWNEFILQPIHNLLMGDTKEQRILNHVLQHAEPGNAQSVLEAIDTYCEQKEWAMNVGDKKGKIVDAVIQEHQPSVLLELGAYCGYSAVRMARLLSPGARLITIEINPDCAAITQRMVDFAGVKDKVTLVVGASQDIIPQLKKKYDVDTLDMVFLDHWKDRYLPDTLLLEECGLLRKGTVLLADNVICPGAPDFLAHVRGSSCFECTHYQSFLEYREVVDGLEKAIYKGPGSEAGP
Km [6]: 14.5 ± 1.8 µM
Km [7]: 13.7 ± 2.2 µM

B5: NNMT (Homo sapiens) (protein)
chain: MESGFTSKDTYLSHFNPRDYLEKYYKFGSRHSAESQILKHLLKNLFKIFCLDGVKGDLLIDIGSGPTIYQLLSACESFKEIVVTDYSDQNLQELEKWLKKEPEAFDWSPVVTYVCDLEGNRVKGPEKEEKLRQAVKQVLKCDVTQSQPLGAVPLPPADCVLSTLCLDAACPDLPTYCRALRNLGSLLKPGGFLVIMDALKSSYYMIGEQKFSSLPLGREAVEAAVKEAGYTIEWFEVISQSYSSTMANNEGLFSLVARKLSRPL
Km [8]: 3.8 ± 0.5 µM
Km [9]: 11.9 ± 5.7 µM
